Patent US20080081903A1, “METHOD FOR SCREENING TRANSCRIPTIONAL COREGULATORY PROTEINS OF TRANSCRIPTION FACTORS, AND ANDROGEN RECEPTOR TRANSCRIPTIONAL COREGULATORY PROTEINS AS TARGETS FOR ANDROGEN RECEPTOR-DEPENDENT DISEASES” (NEW YORK UNIVERSITY, priority 2001, published 2008)

Target: T1, androgen receptor (AR) N-terminus (18-500) (Rattus norvegicus, UniProt P15207)
T1 construct: receptor residues 18 through 500 (using the rat androgen receptor number scheme); expressed in transfected cells; host or cells: Saccharomyces cerevisiae EGY188
T1 sequence (P15207 18-500): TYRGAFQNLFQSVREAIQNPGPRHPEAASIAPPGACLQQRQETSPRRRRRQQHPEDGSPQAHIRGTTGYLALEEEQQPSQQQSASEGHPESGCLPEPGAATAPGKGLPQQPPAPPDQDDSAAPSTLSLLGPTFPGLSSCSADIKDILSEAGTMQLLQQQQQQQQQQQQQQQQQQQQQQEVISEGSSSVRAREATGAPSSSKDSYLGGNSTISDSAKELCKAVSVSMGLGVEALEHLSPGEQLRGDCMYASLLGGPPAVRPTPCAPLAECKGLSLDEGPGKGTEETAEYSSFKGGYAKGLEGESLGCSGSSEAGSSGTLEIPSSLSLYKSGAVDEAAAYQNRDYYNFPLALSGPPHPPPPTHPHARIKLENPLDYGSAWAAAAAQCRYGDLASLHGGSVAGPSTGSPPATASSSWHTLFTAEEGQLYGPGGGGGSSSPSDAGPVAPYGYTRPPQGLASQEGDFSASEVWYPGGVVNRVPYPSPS
Assay: Modified yeast two-hybrid, qualitative plate beta-galactosidase assay
Format: binding
From the text: The modified yeast two hybrid assay is described in Hittelman et al., 1999. EGY188 was transformed by the lithium acetate method with (i) pJG4-5:AR18-500, (ii) pEG202:LNCaP cell cDNA library and (iii) pJK103, a β-galactosidase reporter gene with a single LexA operator. Potential interacting proteins were selected by plating the cDNA library expressing transformants onto galactose plates lacking leucine and containing X-gal.
To analyze the specificity of ART interaction, the capacity of the strongest androgen receptor N-terminus-interacting factors to associate with a panel of transcriptional regulatory proteins in the modified yeast two-hybrid assay was examined. ART-5, ART-27, and ART-37 were tested for interaction with Sp1A (Sp183-262), Sp1B (Sp1263-524) the cyclic AMP response element binding protein (CREB3-296), TBP-associated factor 130 (TAFII130270-700), the glucocorticoid receptor AF1 (GR107-237), and the steroid receptor coactivator-1 (SRC-1374-800).
The strength of interaction was determined by a qualitative plate beta-galactosidase assay after a 24 hour incubation on galactose X-gal plates at 301 C.
ART-27 derivatives containing amino acids 1-45, 1-67, 1-127, 46-157, 68-157, 127-157, 1-157, and 1-45/127-157 were expressed as fusion proteins with LexA. These derivatives were tested for their ability to interact with the androgen receptor N-terminus (AR18-500). The strength of interaction was determined by a qualitative plate beta-galactosidase assay after a 24 hour incubation on galactose X-gal plates at 301 C.

interaction with androgen receptor N-terminus (24 hour incubation on galactose X-gal plates): interacts exclusively
specificity of interaction among panel of transcriptional regulatory factors (AR N-terminus, AR LBD, Sp1A, Sp1B, CREB, TAFII130, GR AF1, SRC-1): interacts rather specifically
B1: ART-5: Androgen Receptor Trapped protein, SEQ ID NO:4, unknown function, represented in EST database (protein)
chain: MHNPDGSASPTADPGSELQTLGQAARRPPPPRAGHDAPRRTRPSARKPLSCFSRRPMPTREPPKTRGSRGHLHTHPPGPGPPLQGLAPRGLKTSAPRPPCQPQPGPHKAKTKKIVFEDELLSQALLGAKKPIGAIPKGHKPRPHPVPDYELKYPPVSSERERSRYVAVFQDQYGEFLELQHEVGCAQAKLRQLEALLSSLPPPQSQKEAQVAARVWREFEMKRMDPGFLDKQARCHYLKGKLRHLKTQIQKFDDQGDSEGSVYF
modifications: Human
